Experimental data taken from PMC11334715 (Science immunology, 2024).
Like-named read-outs stand apart in the source and are kept apart here.

What was measured:
[1] = biological target: T1, murine LRIG1.ECD.His recombinant protein (mouse, UniProt P70193 35-796); assay: SPR
T1 sequence (looked up): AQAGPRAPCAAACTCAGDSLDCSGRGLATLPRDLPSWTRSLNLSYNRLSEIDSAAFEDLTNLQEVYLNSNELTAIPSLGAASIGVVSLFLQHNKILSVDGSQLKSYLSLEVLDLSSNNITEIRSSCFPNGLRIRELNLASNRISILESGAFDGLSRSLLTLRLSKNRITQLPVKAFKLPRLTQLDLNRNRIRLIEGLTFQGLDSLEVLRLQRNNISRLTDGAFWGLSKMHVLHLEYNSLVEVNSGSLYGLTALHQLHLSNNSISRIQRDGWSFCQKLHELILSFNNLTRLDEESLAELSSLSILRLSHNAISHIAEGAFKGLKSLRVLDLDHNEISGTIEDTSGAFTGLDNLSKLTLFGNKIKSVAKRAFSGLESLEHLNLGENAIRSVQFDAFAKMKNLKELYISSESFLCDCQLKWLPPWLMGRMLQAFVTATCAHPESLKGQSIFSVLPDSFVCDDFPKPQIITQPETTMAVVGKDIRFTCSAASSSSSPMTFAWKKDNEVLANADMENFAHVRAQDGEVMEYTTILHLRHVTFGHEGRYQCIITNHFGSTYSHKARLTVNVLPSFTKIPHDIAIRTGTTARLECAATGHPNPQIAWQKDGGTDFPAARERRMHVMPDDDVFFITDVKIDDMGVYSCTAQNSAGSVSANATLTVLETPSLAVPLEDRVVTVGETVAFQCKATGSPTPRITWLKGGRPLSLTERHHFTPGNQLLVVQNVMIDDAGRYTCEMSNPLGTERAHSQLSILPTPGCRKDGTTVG

[2] = biological target: T1, murine LRIG1.ECD.His recombinant protein; assay: SPR; remark: listed apart in the source

B1: murine VISTA.Fc recombinant protein (VISTA.ECD) (Fc fusion, UniProt Q9D659 33-191, looked up)
chain: FKVTTPYSLYVCPEGQNATLTCRILGPVSKGHDVTIYKTWYLSSRGEVQMCKEHRPIRNFTLQHLQHHGSHLKANASHDQPQKHGLELASDHHGNFSITLRNVTPRDSGLYCCLVIELKNHHPEQRFYGSMELQVQAGKGSGSTCMASNEQDSDSITAA
In the case of B1, the Kd [1] is reported as 3.44 nM and the Kd [2] is reported as 1.2 nM.
